The labels stand for the following.
T1: human calcitonin receptor (human, UniProt P30988 25-474)
T1 construct: whole, on cells; Assay used cell membranes, not intact cells; also called hCTR; hCT
T1 sequence (looked up): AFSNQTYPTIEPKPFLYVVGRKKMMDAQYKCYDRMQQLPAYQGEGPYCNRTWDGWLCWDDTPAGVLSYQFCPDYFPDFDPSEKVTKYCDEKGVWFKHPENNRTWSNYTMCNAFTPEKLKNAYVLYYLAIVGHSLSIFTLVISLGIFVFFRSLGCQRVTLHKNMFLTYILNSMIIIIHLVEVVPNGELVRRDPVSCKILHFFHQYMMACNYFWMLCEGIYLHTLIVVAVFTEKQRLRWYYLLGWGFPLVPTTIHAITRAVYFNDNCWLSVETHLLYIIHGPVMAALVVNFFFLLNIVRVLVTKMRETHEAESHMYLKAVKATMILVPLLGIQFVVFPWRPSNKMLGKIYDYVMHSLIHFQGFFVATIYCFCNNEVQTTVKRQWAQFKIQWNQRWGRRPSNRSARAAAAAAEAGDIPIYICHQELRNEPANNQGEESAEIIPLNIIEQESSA

T2: human amylin receptor (amylin 3(a) receptor: human calcitonin receptor with RAMP-3) (human, UniProt P30988 25-474; O60896 24-148)
T2 construct: whole, on cells; Assay used cell membranes of the Amylin 3(a)/CRE-luc BHK cells, not intact cells; also called hAmylin-R; hAmylinR
T2 sequence (looked up) 1: T1 sequence (looked up)
T2 sequence (looked up) 2: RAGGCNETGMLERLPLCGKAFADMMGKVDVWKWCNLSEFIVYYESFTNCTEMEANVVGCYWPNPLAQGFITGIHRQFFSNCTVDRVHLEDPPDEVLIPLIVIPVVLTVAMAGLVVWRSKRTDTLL

B1: N^ε1-[(4S)-4-carboxy-4-[[(4S)-4-carboxy-4-(19-carboxynonadecanoylamino)butanoyl]amino]butanoyl]-[Asp14,Arg17,Pro21,Pro27,Pro34,Arg35]-h-amylin (peptide)
peptide: K([γGlu-γGlu-C20 diacid])CNTATCATQRLADFLRHSSPNFGAIPSSTNVGPRTY-NH2
modifications: disulfide 2-7; N-terminus assumed
SMILES: CC[C@H](C)[C@H](NC(=O)[C@H](C)NC(=O)CNC(=O)[C@H](Cc1ccccc1)NC(=O)[C@H](CC(N)=O)NC(=O)[C@@H]1CCCN1C(=O)[C@H](CO)NC(=O)[C@H](CO)NC(=O)[C@H](Cc1c[nH]cn1)NC(=O)[C@H](CCCNC(=N)N)NC(=O)[C@H](CC(C)C)NC(=O)[C@H](Cc1ccccc1)NC(=O)[C@H](CC(=O)O)NC(=O)[C@H](C)NC(=O)[C@H](CC(C)C)NC(=O)[C@H](CCCNC(=N)N)NC(=O)[C@H](CCC(N)=O)NC(=O)[C@@H](NC(=O)[C@H](C)NC(=O)[C@@H]1CSSC[C@H](NC(=O)[C@@H](N)CCCCNC(=O)CC[C@H](NC(=O)CC[C@H](NC(=O)CCCCCCCCCCCCCCCCCCC(=O)O)C(=O)O)C(=O)O)C(=O)N[C@@H](CC(N)=O)C(=O)N[C@@H]([C@@H](C)O)C(=O)N[C@@H](C)C(=O)N[C@@H]([C@@H](C)O)C(=O)N1)[C@@H](C)O)C(=O)N1CCC[C@H]1C(=O)N[C@@H](CO)C(=O)N[C@@H](CO)C(=O)N[C@H](C(=O)N[C@@H](CC(N)=O)C(=O)N[C@H](C(=O)NCC(=O)N1CCC[C@H]1C(=O)N[C@@H](CCCNC(=N)N)C(=O)N[C@H](C(=O)N[C@@H](Cc1ccc(O)cc1)C(N)=O)[C@@H](C)O)C(C)C)[C@@H](C)O
notes: also called compound 130
B2: N^ε1-[(4S)-4-carboxy-4-[[(4S)-4-carboxy-4-(19-carboxynonadecanoylamino)butanoyl]amino]butanoyl]-[Asp14,Arg17,Pro21,Pro27,Pro34,Glu35]-h-amylin (peptide)
peptide: K([γGlu-γGlu-C20 diacid])CNTATCATQRLADFLRHSSPNFGAIPSSTNVGPETY-NH2
modifications: disulfide 2-7; N-terminus assumed
SMILES: CC[C@H](C)[C@H](NC(=O)[C@H](C)NC(=O)CNC(=O)[C@H](Cc1ccccc1)NC(=O)[C@H](CC(N)=O)NC(=O)[C@@H]1CCCN1C(=O)[C@H](CO)NC(=O)[C@H](CO)NC(=O)[C@H](Cc1c[nH]cn1)NC(=O)[C@H](CCCNC(=N)N)NC(=O)[C@H](CC(C)C)NC(=O)[C@H](Cc1ccccc1)NC(=O)[C@H](CC(=O)O)NC(=O)[C@H](C)NC(=O)[C@H](CC(C)C)NC(=O)[C@H](CCCNC(=N)N)NC(=O)[C@H](CCC(N)=O)NC(=O)[C@@H](NC(=O)[C@H](C)NC(=O)[C@@H]1CSSC[C@H](NC(=O)[C@@H](N)CCCCNC(=O)CC[C@H](NC(=O)CC[C@H](NC(=O)CCCCCCCCCCCCCCCCCCC(=O)O)C(=O)O)C(=O)O)C(=O)N[C@@H](CC(N)=O)C(=O)N[C@@H]([C@@H](C)O)C(=O)N[C@@H](C)C(=O)N[C@@H]([C@@H](C)O)C(=O)N1)[C@@H](C)O)C(=O)N1CCC[C@H]1C(=O)N[C@@H](CO)C(=O)N[C@@H](CO)C(=O)N[C@H](C(=O)N[C@@H](CC(N)=O)C(=O)N[C@H](C(=O)NCC(=O)N1CCC[C@H]1C(=O)N[C@@H](CCC(=O)O)C(=O)N[C@H](C(=O)N[C@@H](Cc1ccc(O)cc1)C(N)=O)[C@@H](C)O)C(C)C)[C@@H](C)O
B3: N^ε1-[(4S)-4-carboxy-4-[[(4S)-4-carboxy-4-(19-carboxynonadecanoylamino)butanoyl]amino]butanoyl]-[Glu14,Arg17,Pro21,Pro27,His34,Glu35]-h-amylin (peptide)
peptide: K([γGlu-γGlu-C20 diacid])CNTATCATQRLAEFLRHSSPNFGAIPSSTNVGHETY-NH2
modifications: disulfide 2-7; N-terminus assumed
SMILES: CC[C@H](C)[C@H](NC(=O)[C@H](C)NC(=O)CNC(=O)[C@H](Cc1ccccc1)NC(=O)[C@H](CC(N)=O)NC(=O)[C@@H]1CCCN1C(=O)[C@H](CO)NC(=O)[C@H](CO)NC(=O)[C@H](Cc1c[nH]cn1)NC(=O)[C@H](CCCNC(=N)N)NC(=O)[C@H](CC(C)C)NC(=O)[C@H](Cc1ccccc1)NC(=O)[C@H](CCC(=O)O)NC(=O)[C@H](C)NC(=O)[C@H](CC(C)C)NC(=O)[C@H](CCCNC(=N)N)NC(=O)[C@H](CCC(N)=O)NC(=O)[C@@H](NC(=O)[C@H](C)NC(=O)[C@@H]1CSSC[C@H](NC(=O)[C@@H](N)CCCCNC(=O)CC[C@H](NC(=O)CC[C@H](NC(=O)CCCCCCCCCCCCCCCCCCC(=O)O)C(=O)O)C(=O)O)C(=O)N[C@@H](CC(N)=O)C(=O)N[C@@H]([C@@H](C)O)C(=O)N[C@@H](C)C(=O)N[C@@H]([C@@H](C)O)C(=O)N1)[C@@H](C)O)C(=O)N1CCC[C@H]1C(=O)N[C@@H](CO)C(=O)N[C@@H](CO)C(=O)N[C@H](C(=O)N[C@@H](CC(N)=O)C(=O)N[C@H](C(=O)NCC(=O)N[C@@H](Cc1c[nH]cn1)C(=O)N[C@@H](CCC(=O)O)C(=O)N[C@H](C(=O)N[C@@H](Cc1ccc(O)cc1)C(N)=O)[C@@H](C)O)C(C)C)[C@@H](C)O
B4: N^ε1-[(4S)-4-carboxy-4-[[(4S)-4-carboxy-4-(19-carboxynonadecanoylamino)butanoyl]amino]butanoyl]-[Glu14,Arg17,Pro21,Pro27,Arg35]-h-amylin (peptide)
peptide: K([γGlu-γGlu-C20 diacid])CNTATCATQRLAEFLRHSSPNFGAIPSSTNVGSRTY-NH2
modifications: disulfide 2-7; N-terminus assumed
SMILES: CC[C@H](C)[C@H](NC(=O)[C@H](C)NC(=O)CNC(=O)[C@H](Cc1ccccc1)NC(=O)[C@H](CC(N)=O)NC(=O)[C@@H]1CCCN1C(=O)[C@H](CO)NC(=O)[C@H](CO)NC(=O)[C@H](Cc1c[nH]cn1)NC(=O)[C@H](CCCNC(=N)N)NC(=O)[C@H](CC(C)C)NC(=O)[C@H](Cc1ccccc1)NC(=O)[C@H](CCC(=O)O)NC(=O)[C@H](C)NC(=O)[C@H](CC(C)C)NC(=O)[C@H](CCCNC(=N)N)NC(=O)[C@H](CCC(N)=O)NC(=O)[C@@H](NC(=O)[C@H](C)NC(=O)[C@@H]1CSSC[C@H](NC(=O)[C@@H](N)CCCCNC(=O)CC[C@H](NC(=O)CC[C@H](NC(=O)CCCCCCCCCCCCCCCCCCC(=O)O)C(=O)O)C(=O)O)C(=O)N[C@@H](CC(N)=O)C(=O)N[C@@H]([C@@H](C)O)C(=O)N[C@@H](C)C(=O)N[C@@H]([C@@H](C)O)C(=O)N1)[C@@H](C)O)C(=O)N1CCC[C@H]1C(=O)N[C@@H](CO)C(=O)N[C@@H](CO)C(=O)N[C@H](C(=O)N[C@@H](CC(N)=O)C(=O)N[C@H](C(=O)NCC(=O)N[C@@H](CO)C(=O)N[C@@H](CCCNC(=N)N)C(=O)N[C@H](C(=O)N[C@@H](Cc1ccc(O)cc1)C(N)=O)[C@@H](C)O)C(C)C)[C@@H](C)O
notes: also called compound 89
B5: N^ε1-[(4S)-4-carboxy-4-[[(4S)-4-carboxy-4-(19-carboxynonadecanoylamino)butanoyl]amino]butanoyl]-[Glu14,Arg17,Pro21,Pro27,Arg34]-h-amylin (peptide)
peptide: K([γGlu-γGlu-C20 diacid])CNTATCATQRLAEFLRHSSPNFGAIPSSTNVGRNTY-NH2
modifications: disulfide 2-7; N-terminus assumed
SMILES: CC[C@H](C)[C@H](NC(=O)[C@H](C)NC(=O)CNC(=O)[C@H](Cc1ccccc1)NC(=O)[C@H](CC(N)=O)NC(=O)[C@@H]1CCCN1C(=O)[C@H](CO)NC(=O)[C@H](CO)NC(=O)[C@H](Cc1c[nH]cn1)NC(=O)[C@H](CCCNC(=N)N)NC(=O)[C@H](CC(C)C)NC(=O)[C@H](Cc1ccccc1)NC(=O)[C@H](CCC(=O)O)NC(=O)[C@H](C)NC(=O)[C@H](CC(C)C)NC(=O)[C@H](CCCNC(=N)N)NC(=O)[C@H](CCC(N)=O)NC(=O)[C@@H](NC(=O)[C@H](C)NC(=O)[C@@H]1CSSC[C@H](NC(=O)[C@@H](N)CCCCNC(=O)CC[C@H](NC(=O)CC[C@H](NC(=O)CCCCCCCCCCCCCCCCCCC(=O)O)C(=O)O)C(=O)O)C(=O)N[C@@H](CC(N)=O)C(=O)N[C@@H]([C@@H](C)O)C(=O)N[C@@H](C)C(=O)N[C@@H]([C@@H](C)O)C(=O)N1)[C@@H](C)O)C(=O)N1CCC[C@H]1C(=O)N[C@@H](CO)C(=O)N[C@@H](CO)C(=O)N[C@H](C(=O)N[C@@H](CC(N)=O)C(=O)N[C@H](C(=O)NCC(=O)N[C@@H](CCCNC(=N)N)C(=O)N[C@@H](CC(N)=O)C(=O)N[C@H](C(=O)N[C@@H](Cc1ccc(O)cc1)C(N)=O)[C@@H](C)O)C(C)C)[C@@H](C)O
notes: also called compound 88

Numbered stars: 1 amine (or outer) side, 2 acyl side, 3 side chain; on linkers, the order of the positions; unused ones are H or OH. Bridge positions count the residues as written; N and C are the ends. Side chains are listed from the residue outwards. Ends that are not written are not given here. * marks the point of attachment. C20 diacid = O=C(O)CCCCCCCCCCCCCCCCCCC(=O)*; γGlu = O=C(O)[C@H](CCC(=O)[*:2])N[*:1]

One experiment has as its target T1, human calcitonin receptor. The experiment is described as follows: ratio IC50 hCTR / IC50 hAmylin-R (reference: human amylin receptor), SPA competition assays. Put shortly: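 Scintillation proximity competition binding on cell membranes at 35 ng/μL with SPA beads, in 50 mM Hepes pH 7.4, 1 mM CaCl2, 5 mM MgCl₂, 0.1% OA, 0.02% Tween20. Incubated 120 min at 25° C with shaking. IC₅₀ from one-site competition fit.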
Consider B1, for which the “Ratio hCT/hAmylin binding” value worked out at 280.

For B2, the “Ratio hCT/hAmylin binding” value came out at 49.8.

With B3, the “Ratio hCT/hAmylin binding” value came to 29.1.

Take B4: the “Ratio hCT/hAmylin binding” value is 28.

Regarding B5, the “Ratio hCT/hAmylin binding” value amounted to 46.5.

The next experiment has as its target T1, human calcitonin receptor. The experiment is described as follows: SPA competition with 125I-calcitonin on membranes of BHK cells with human calcitonin receptor (Assay VII). The method, boiled down: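 BHK hCTR membranes 35 ng/μL + SPA beads 0.05 mg/well; buffer 50 mM Hepes pH 7.4, 1 mM CaCl2, 5 mM MgCl₂, 0.1% OA, 0.02% Tween20. 120 min, 25° C., shaking. Scintillation count; IC50 by one-site binding competition.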
In general, IC50 refers to the concentration at which inhibition is half-maximal. Turning to B1, the IC50 was 127 nM.

Turning to B2, the IC50 is 8.56 nM.

As for B3, the IC50 came to 15.2 nM.

For the molecule B4, the IC50 amounted to 32.5 nM.

With B5, the IC50 was found to be 34.9 nM.

The next experiment addresses T2, human amylin receptor (amylin 3(a) …). Briefly: SPA competition with 125I-rat amylin on membranes of BHK cells with human calcitonin receptor and RAMP-3 (Assay V). The method, boiled down:
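Membranes from BHK Amylin 3(a)/CRE-luc cells (35 ng/μL final) were mixed with SPA beads and test compounds in 50 mM Hepes pH 7.4 with 1 mM CaCl2, 5 mM MgCl₂, 0.1% OA and 0.02% Tween20. Incubation ran 120 min at 25° C with shaking; IC₅₀ came from one-site competition fitting.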
Consider B1, for which the IC50 came out at 0.453 nM.

As for B2, the half-inhibitory concentration (IC50) was 0.172 nM.

Consider B3, for which the IC50 turned out to be 0.525 nM.

Consider B4, for which the IC50 is 1.16 nM.

B5: the IC50 was determined as 0.75 nM.
